Reference: paper PMC3448853
Each block holds one substance with its values, some of them ahead of it.

How the values were obtained:
Test in all cases: SEC
[1] = molecular target: aglycosylated Fc5 (E382V/M428I) variant of human IgG1 Fc (human)
[2] = molecular target: aglycosylated human IgG1 Fc (wild type), E. coli expressed (human)
[3] = molecular target: glycosylated human Fc (wild type), Bethyl Laboratories (human)

- stoichiometry N [1]: 2
Substance: aglycosylated Fc5 (E382V/M428I) variant of human IgG1 Fc (domain or fragment)

- stoichiometry N [2]: 2
Substance: aglycosylated human IgG1 Fc (wild type), E. coli expressed (domain or fragment)

- stoichiometry N [3]: 2
Substance: glycosylated human Fc (wild type), Bethyl Laboratories (domain or fragment)
